Changes are numbered by the printed parent chain.
T1: Peptide 4: Biotin-AGGGGSGGGGSGGGGSAAA-Tyr-acid (N-terminal biotin; C-terminal acid)
T1 construct: control peptide without PC
T1 peptide: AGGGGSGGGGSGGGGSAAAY

T2: Peptide 8: Biotin-AEAAAKEAAAKEAAAKEAAAKAAA-Tyr-acid (N-terminal biotin; C-terminal acid)
T2 construct: control peptide without PC
T2 peptide: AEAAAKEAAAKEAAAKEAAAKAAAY

B1: PcOxP_DB02_C02 (scFv, V domains shown)
VH: EVQLLESGGGLVQPGGSLRLSCAASGFTFSDFYMEWVRQAPGKGLEWVAASRNKANDYTVEYADSVKGRFTISRDNSKNTLYLQMNSLRAEDTAVYYCARDYYGHSYWYFDVWGQGTLVTVSS
VL: DIQMTQSPSSLSASVGDRVTITCTASESLYSSKHKVHYLAWYQQKPGKAPKLLIYGASNRYIGVPSRFSGSGSGTDFTLTISSLQPEDFATYYCAQFYSYPLTFGGGTKVEIK
notes: scFv in periplasmic extract
B2: PcOxP_DB03_B02 (scFv, V domains shown)
VH: B1 VH with T28A, V60T, H105S
VL: B1 VL with I62D, S99E
notes: scFv in periplasmic extract
B3: PcOxP_DB02_F02 (scFv, V domains shown)
VH: B1 VH with V60T, H105S
VL: B1 VL with T24F, Y61G
notes: scFv in periplasmic extract
B4: PcOxP_DB02_G09 (scFv, V domains shown)
VH: B1 VH with F32Q, V60T, H105S
VL: B1 VL with Y61P
notes: scFv in periplasmic extract
B5: PcOxP_DB02_F12 (scFv, V domains shown)
VH: B1 VH with F32A, V60T, H105S
VL: B1 VL with T24E, I62P, S99E
notes: scFv in periplasmic extract
B6: PcOxP_DB02_D09 (scFv, V domains shown)
VH: B1 VH with D31T, V60T, H105S
VL: B1 VL with I62G, S99E
notes: scFv in periplasmic extract
B7: PcOxP_DB03_A09 (scFv, V domains shown)
VH: B1 VH with F32Y, V60T, H105S
VL: B1 VL with Y61G
notes: scFv in periplasmic extract
B8: PcOxP_DB02_F07 (scFv, V domains shown)
VH: B1 VH with T28W, V60T, H105S
VL: B1 VL with E27Q, H34N, A57E
notes: scFv in periplasmic extract
B9: PcOxP_DB02_E10 (scFv, V domains shown)
VH: B1 VH with F32Q, T59Q, V60T, H105S
VL: B1 VL with S32G, R60L, Y61Q, S99Y
notes: scFv in periplasmic extract
B10: PcOxP_DB03_A03 (scFv, V domains shown)
VH: B1 VH with V60T, H105S
VL: B1 VL with N59F
notes: scFv in periplasmic extract
B11: PcOxP_DB02_C11 (scFv, V domains shown)
VH: B1 VH with F29S, T59Y, V60T, H105S
VL: B1 VL
notes: scFv in periplasmic extract
B12: PcOxP_DB02_H10 (scFv, V domains shown)
VH: B1 VH with F32Y, V60T, H105S
VL: B1 VL with S58G, S99E
notes: scFv in periplasmic extract
B13: PcOxP_DB02_E01 (scFv, V domains shown)
VH: B1 VH with F32Q, V60T, H105S
VL: B1 VL with N59G
notes: scFv in periplasmic extract
B14: PcOxP_DB02_G07 (scFv, V domains shown)
VH: B1 VH with F32G, V60T, H105S
VL: B1 VL with I62G
notes: scFv in periplasmic extract
B15: PcOxP_DB03_C03 (scFv, V domains shown)
VH: B1 VH with A55Y, V60T, H105S
VL: B1 VL
notes: scFv in periplasmic extract
B16: PcOxP_DB02_H03 (scFv, V domains shown)
VH: B1 VH with V60T, H105S
VL: B1 VL with L29I, Y30S, R60L, I62S, Q96H
notes: scFv in periplasmic extract
B17: PcOxP_DB02_D01 (scFv, V domains shown)
VH: B1 VH with T28G, N53H, V60T, H105S
VL: B1 VL with S99W
notes: scFv in periplasmic extract
B18: PcOxP_DB03_A08 (scFv, V domains shown)
VH: B1 VH with F32V, V60T, H105S
VL: B1 VL
notes: scFv in periplasmic extract
B19: PcOxP_DB02_C06 (scFv, V domains shown)
VH: B1 VH with F32A, V60T, H105S
VL: B1 VL with S28W, Y61N, S99Y
notes: scFv in periplasmic extract
B20: PcOxP_DB02_C09 (scFv, V domains shown)
VH: B1 VH with F32A, V60T, H105S
VL: B1 VL with S58G, S99F
notes: scFv in periplasmic extract
B21: PcOxP_DB02_D10 (scFv, V domains shown)
VH: B1 VH with F32Q, V60T, H105S
VL: B1 VL with S26T, I62T
notes: scFv in periplasmic extract
B22: PcOxP_DB03_A11 (scFv, V domains shown)
VH: B1 VH with D31S, F32Y, K54Q, V60T, H105S, F110L
VL: B1 VL with S58D, S99H
notes: scFv in periplasmic extract
B23: PcOxP_DB02_G06 (scFv, V domains shown)
VH: B1 VH with D31S, F32Y, K54Q, V60T, H105S, S106P
VL: B1 VL with A57V
notes: scFv in periplasmic extract

Molecular target: T1, Peptide 4: …
Assay: scFv ELISA
Procedure: (§1) For ELISA analysis of scFv binding, 96-well polystyrene plates were coated with Peptide 1, 4, 5, 8 or 100 μL BSA (10 μg/mL) in PBS at 4° C. overnight. Plates were washed three times with PBS-Tween and blocked with 100 μL 1% BSA-TBS for 1 hour at room temperature. 96-well streptavidin coated plates were coated with 100 μL biotinylated PC-peptides (1 μg/mL) in PBS for 1 hour at room temperature.
(§2) All plates were washed three times with PBS-Tween before 40 μL aliquots of PPE were added to assay plates along with 50 μL 10% BSA, and plates were incubated for 1 hour at room temperature. After washing, […] HRP conjugated anti-V5 in 5% BSA was added, and plates were incubated at room temperature for 30 mins. Plates were washed and 100 μL TMB substrate was added. Color was left to develop at room temperature before the reaction was stopped with 100 μL 1N HCl. The amount of scFv bound to each well was quantitated from absorbance measurement at 450 nm (OD450).

Row | OD450 [OD450] | Binder
1 | 0.05 | B1
2 | 0.05 | B2
3 | 0.05 | B3
4 | 0.05 | B4
5 | 0.04 | B5
6 | 0.05 | B6
7 | 0.05 | B7
8 | 0.05 | B8
9 | 0.04 | B9
10 | 0.06 | B10
11 | 0.05 | B11
12 | 0.05 | B12
13 | 0.05 | B13
14 | 0.05 | B14
15 | 0.05 | B15
16 | 0.05 | B16
17 | 0.05 | B17
18 | 0.06 | B18
19 | 0.05 | B19
20 | 0.05 | B20
21 | 0.05 | B21
22 | 0.05 | B22
23 | 0.06 | B23

Molecular target: T2, Peptide 8: …
Assay: scFv ELISA
Procedure: as §1, §2

Row | OD450 [OD450] | Binder
24 | 0.05 | B1
25 | 0.05 | B2
26 | 0.05 | B3
27 | 0.04 | B4
28 | 0.04 | B5
29 | 0.04 | B6
30 | 0.05 | B7
31 | 0.05 | B8
32 | 0.04 | B9
33 | 0.06 | B10
34 | 0.04 | B11
35 | 0.05 | B12
36 | 0.1 | B13
37 | 0.09 | B14
38 | 0.05 | B15
39 | 0.05 | B16
40 | 0.05 | B17
41 | 0.05 | B18
42 | 0.05 | B19
43 | 0.04 | B20
44 | 0.04 | B21
45 | 0.05 | B22
46 | 0.05 | B23

Each binder was assayed against Peptide 5: Biotin-…-[Tyr(PC)]-acid (assay: scFv ELISA).

Row | OD450 [OD450] | Binder
47 | 0.62 | B1
48 | 1.64 | B2
49 | 0.6 | B3
50 | 0.71 | B4
51 | 0.81 | B5
52 | 0.44 | B6
53 | 1.09 | B7
54 | 0.91 | B8
55 | 0.79 | B9
56 | 0.81 | B10
57 | 0.24 | B11
58 | 1.39 | B12
59 | 0.63 | B13
60 | 0.99 | B14
61 | 1.66 | B15
62 | 0.82 | B16
63 | 0.35 | B17
64 | 0.71 | B18
65 | 1.03 | B19
66 | 1.01 | B20
67 | 1.01 | B21
68 | 1.08 | B22
69 | 0.87 | B23

What follows are binders tested against BSA (UniProt P02769) (assay: scFv ELISA).
Chain of BSA (P02769 25-607 limits assumed): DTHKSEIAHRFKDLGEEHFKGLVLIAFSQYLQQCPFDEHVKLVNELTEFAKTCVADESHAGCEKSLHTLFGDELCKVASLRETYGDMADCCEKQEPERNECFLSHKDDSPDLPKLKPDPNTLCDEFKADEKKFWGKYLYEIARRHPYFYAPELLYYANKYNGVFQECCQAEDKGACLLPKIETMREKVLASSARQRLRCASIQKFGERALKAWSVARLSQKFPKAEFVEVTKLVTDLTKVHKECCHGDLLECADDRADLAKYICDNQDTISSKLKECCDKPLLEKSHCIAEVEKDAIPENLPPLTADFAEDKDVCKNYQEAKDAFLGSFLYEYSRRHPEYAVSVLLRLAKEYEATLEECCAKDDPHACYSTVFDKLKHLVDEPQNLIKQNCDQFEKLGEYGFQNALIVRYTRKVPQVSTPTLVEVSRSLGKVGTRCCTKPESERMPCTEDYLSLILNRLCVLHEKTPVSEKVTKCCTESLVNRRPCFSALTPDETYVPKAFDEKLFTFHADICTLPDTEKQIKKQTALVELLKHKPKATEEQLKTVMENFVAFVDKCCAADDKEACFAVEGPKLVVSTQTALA

Row | OD450 [OD450] | Binder
70 | 0.1 | B1
71 | 0.07 | B2
72 | 0.11 | B3
73 | 0.1 | B4
74 | 0.07 | B5
75 | 0.11 | B6
76 | 0.09 | B7
77 | 0.1 | B8
78 | 0.09 | B9
79 | 0.09 | B10
80 | 0.1 | B11
81 | 0.08 | B12
82 | 0.11 | B13
83 | 0.1 | B14
84 | 0.09 | B15
85 | 0.08 | B16
86 | 0.09 | B17
87 | 0.11 | B18
88 | 0.11 | B19
89 | 0.1 | B20
90 | 0.1 | B21
91 | 0.08 | B22
92 | 0.08 | B23

These binders were tested against Peptide 1: Biotin-…-[Tyr(PC)]-acid (assay: scFv ELISA).

Row | OD450 [OD450] | Binder
93 | 0.35 | B1
94 | 2.02 | B2
95 | 0.37 | B3
96 | 0.35 | B4
97 | 0.5 | B5
98 | 0.16 | B6
99 | 1.02 | B7
100 | 0.43 | B8
101 | 0.52 | B9
102 | 0.54 | B10
103 | 0.12 | B11
104 | 1.43 | B12
105 | 0.43 | B13
106 | 0.52 | B14
107 | 1.36 | B15
108 | 0.27 | B16
109 | 0.31 | B17
110 | 0.67 | B18
111 | 0.54 | B19
112 | 0.69 | B20
113 | 0.69 | B21
114 | 1.12 | B22
115 | 0.43 | B23
